Data taken from article PMC6954272, “Structure and dynamics of the E. coli chemotaxis core signaling complex by cryo-electron tomography and molecular simulations” (Communications Biology, 2020).

What was measured:
[1] = molecular target: His6-tagged 4Q variant of the cytoplasmic fragment of the E. coli aspartate receptor Tar (His6-TarCF4Q) (E. coli) (UniProt P07017); assay: cryo-EM structure; cryo-electron tomography and sub-tomogram averaging of arrays reconstituted in vitro; His6-TarCF held on a Ni2+-NTA lipid monolayer; 9:18:18 µM TarCF:CheA:CheW; 75 mM Tris-HCl pH 7.4, 100 mM KCl, 5 mM MgCl2; overnight
[2] = molecular target: the molecule itself; assay: as above

His6-tagged 4Q variant of the cytoplasmic fragment of the E. coli aspartate receptor Tar (His6-TarCF4Q) (from UniProt P07017 357-553) (domain or fragment)
stoichiometry N [1]: 6

B1: E. coli histidine kinase CheA, domains P3-P4-P5 (P1-P2 deleted) (domain or fragment, UniProt P07363 264-654, looked up)
chain: IRVAVEKVDQLINLVGELVITQSMLAQRSSELDPVNHGDLITSMGQLQRNARDLQESVMSIRMMPMEYVFSRYPRLVRDLAGKLGKQVELTLVGSSTELDKSLIERIIDPLTHLVRNSLDHGIELPEKRLAAGKNSVGNLILSAEHQGGNICIEVTDDGAGLNRERILAKAASQGLTVSENMSDDEVAMLIFAPGFSTAEQVTDVSGRGVGMDVVKRNIQKMGGHVEIQSKQGTGTTIRILLPLTLAILDGMSVRVADEVFILPLNAVMESLQPREADLHPLAGGERVLEVRGEYLPIVELWKVFNVAGAKTEATQGIVVILQSGGRRYALLVDQLIGQHQVVVKNLESNYRKVPGISAATILGDGSVALIVDVSALQAINREQRMANTAA
notes: Histidine kinase CheA, E. coli, domains P3, P4 and P5 (pQM12: based on pKJ9 with del P1-P2); the atomic model covers residues 264-646; The methods also name pKJ9 (full-length CheA); the results say that CheA.P3-P4-P5 stood in the monolayer arrays; also called CheA.P3-P4-P5; CheA.P3.P4.P5; source: E. coli RP3098, plasmid pQM12, purified (Affi-gel Blue, Superdex 200, Mono Q)
stoichiometry N (CheA per receptor trimer-of-dimers (TOD)) [1]: 1
stoichiometry N [2]: 2

B2: E. coli adaptor protein CheW (natural protein)
chain: MTGMTNVTKLASEPSGQEFLVFTLGDEEYGIDILKVQEIRGYDQVTRIANTPAFIKGVTNLRGVIVPIVDLRIKFSQVDVDYNDNTVVIVLNLGQRVVGIVVDGVSDVLSLTAEQIRPAPEFAVTLSTEYLTGLGALGDRMLILVNIEKLLNSEEMALLDSAASEVA
stoichiometry N (CheW per receptor trimer-of-dimers (TOD)) [1]: 2
